Experimental data as given in paper PMC5318909, “Nucleobindin 1 binds to multiple types of pre-fibrillar amyloid and inhibits fibrillization” (Scientific Reports, 2017).

What was measured:
[1] = target: Aβ42 synthetic peptide (UniProt P05067 672-713); assay: cell-based or functional assay
[2] = target: the molecule itself; assay: atomic force microscopy; mtNUCB1 alone plated on freshly cleaved mica, imaged in air in tapping mode; volume analysis of particles

B1: Ca2+-free mutant variant of soluble nucleobindin 1 (mtNUCB1) (natural protein, human, UniProt Q02818 31-461, looked up)
chain: RGAPNKEETPATESPDTGLYYHRYLQEVIDVLETDGHFREKLQAANAEDIKSGKLSRELDFVSHHVRTKLDELKRQEVSRLRMLLKAKMDAEQDPNVQVDHLNLLKQFEHLDPQNQHTFEARDLELLIQTATRDLAQYDAAHHEEFKRYEMLKEHERRRYLESLGEEQRKEAERKLEEQQRRHREHPKVNVPGSQAQLKEVWEELDGLDPNRFNPKTFFILHKINSDGVLDEQALEALFTKELEKVYDPKNEEDDMREMEEERLRMREHVMKNVKTNQDRLVTLEAFLASTQRKEFGDTGEGWETVEMHPAYTEEELRRFEEELAAREAELNAKAQRLSQETEALGRSQGRLEAQKRELQQAVLHMEQRKQQQQQQQGHKAPAAHPEGQLKFHPDTDDVPVPAPAGDQKEVDTSEKKLLERLPEVEVPQHL
notes: His tag cleaved with PreScission protease; also called CLABP; source: E. coli BL21 (DE3), purified (Ni-NTA, Superdex200 SEC); not shown: His6, N-terminal, cleaved
MTT viability of PC12 cells treated for 24 h with 100 nM Aβ42 and increasing doses of mtNUCB1: IC50 of protection [1]: 1400 nM
stoichiometry N [2]: 2
